Three substances from publication PMC3380022, “Basic Residues R260 and K357 Affect the Conformational Dynamics of the Major Facilitator Superfamily Multidrug Transporter LmrP” (PLoS ONE, 2012) can be followed below.

In data set [1] the test system is CC[n+]1c(-c2ccccc2)c2cc(N)ccc2c2ccc(N)cc21. Description: facilitated ethidium influx in ATP-depleted cells, fluorimetry, hyperbolic fit. The format is cell-based, Lactococcus lactis. The note with it: 50 mM KPi pH 7.0, 5 mM MgSO4, no proton-motive force, 0.25-10 µM ethidium bromide, non-expressing control subtracted.
Data set [2] has the same test system. Description: cells, lysate or membranes. The note with it: 50 mM KPi pH 7.0, 5 mM MgSO4, no proton-motive force, 0.25-10 µM ethidium bromide, non-expressing control subtracted.

LmrP (Lactococcus lactis; K357A): the Km (in general, the concentration of substrate that gives half-maximal velocity) in data set [1] worked out at 1.42 ± 0.29 µM.

Regarding LmrP (Lactococcus lactis; R260A), in data set [1], the Michaelis constant (Km) was determined as 1.49 ± 0.68 µM.

For LmrP (Lactococcus lactis), the Km in data set [2] came out at 0.92 ± 0.30 µM.
